US20070071744A1
Where “and” joins values, the source holds several entries; their conditions need not be identical. Identical values can stand only once.

Key:
[1] = target: T1, peptide 117 (human); experiment: PepSpot peptide array, control incubation
T1 sequence (peptide, N-terminus acetylated): SFTNKVFTTETSR

[2] = target: T2, peptide 118 (human); experiment: PepSpot peptide array, control incubation
T2 sequence (peptide, N-terminus acetylated): TNKVFTTETSRSI

[3] = target: T3, peptide 7 (human); experiment: PepSpot peptide array, control incubation
T3 sequence (peptide, N-terminus acetylated): LCLGRVPAQSGPL

[4] = target: mouse GPVI on mouse platelets (mouse) (UniProt P0C191); experiment: cell-based or functional assay
[5] = target: Fc-GPVI-nt (immunoadhesin: extracellular domain of human GPVI fused via Gly-Gly-Arg to human IgG Fc, dimer) (human); experiment: competition ELISA, immobilized collagen as competitor
Sequence of Fc-GPVI-nt (immunoadhesin: extracellular domain of human GPVI fused via Gly-Gly-Arg to human IgG Fc, dimer) (human) (chain, as listed by the source limits assumed): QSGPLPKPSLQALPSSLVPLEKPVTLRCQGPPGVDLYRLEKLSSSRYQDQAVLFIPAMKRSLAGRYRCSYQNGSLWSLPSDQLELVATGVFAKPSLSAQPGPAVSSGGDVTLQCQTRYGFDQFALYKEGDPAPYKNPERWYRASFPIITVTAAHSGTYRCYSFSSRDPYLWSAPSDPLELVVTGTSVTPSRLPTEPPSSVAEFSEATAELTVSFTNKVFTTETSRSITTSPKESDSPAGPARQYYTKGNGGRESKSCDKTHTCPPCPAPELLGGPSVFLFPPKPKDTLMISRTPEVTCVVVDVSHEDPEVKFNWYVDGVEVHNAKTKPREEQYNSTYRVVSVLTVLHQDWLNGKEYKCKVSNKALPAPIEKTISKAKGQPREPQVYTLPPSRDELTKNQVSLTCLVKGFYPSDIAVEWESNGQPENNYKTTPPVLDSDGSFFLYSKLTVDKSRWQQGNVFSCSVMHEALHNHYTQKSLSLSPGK

Sequence of mouse GPVI on mouse platelets (mouse) (P0C191 22-313): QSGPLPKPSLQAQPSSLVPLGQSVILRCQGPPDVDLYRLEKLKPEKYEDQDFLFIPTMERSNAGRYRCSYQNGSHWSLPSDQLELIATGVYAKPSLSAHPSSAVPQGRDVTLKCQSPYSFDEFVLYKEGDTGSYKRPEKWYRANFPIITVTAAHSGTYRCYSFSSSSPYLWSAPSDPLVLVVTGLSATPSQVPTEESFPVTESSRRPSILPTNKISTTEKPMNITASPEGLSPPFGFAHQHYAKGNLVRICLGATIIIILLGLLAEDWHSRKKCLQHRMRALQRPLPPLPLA

An LU (Light Units) [1] of 377 LU, an LU (Light Units) [2] of 354 LU and an LU (Light Units) [3] of 239 LU were found for anti-rat-HRP (Sigma A9037) (antibody) in this work.
With monoclonal antibody anti GPVI (JAQ1) the ATP release [4] was 1.09 nM ATP and the platelet aggregation of mouse platelet-rich plasma after stimulation with 2 µg collagen/ml [4] was 2% and 1.5%.
A concentration required to reduce Fc-GPVI-nt binding by more than 50% [5] of 100 µg/mL was found for “soluble collagen (solubilized fibrillar collagen) (ligand)” in this work.
